Test results: the nanobody polyreactivity screen of Harvey et al. (2022)

Experiment: yeast display, Sf9 membrane polyspecificity reagent, FACS + sequencing; frameworks hold sequencing errors
Summary of the method: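 Galactose-induced (36–48 hours) yeast carrying a synthetic nanobody display library were exposed to 10% biotinylated, detergent-solubilized Sf9 membrane reagent at 4 °C for 1 hour. FACS followed streptavidin microbead enrichment, using low and high (top ~1%) gates for expression (anti-HA) and reagent binding (streptavidin). Colony PCR, MiSeq 2 × 250 sequencing and CDR-length filtering followed. Labels for polyreactivity reflect the gate of origin.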

QVQLVESGGGLVQAGGSLRLTCAASGSTLWYYAMGWYRQAPGKERELVADITSSGNTNYADSVKGRFTISRDNAKNTVYLQMNSLKPEDTAVYYCAADSANYQWYLSWQKDDYWGQGTQVTVSS
polyreactivity (PSR sort gate): low polyreactivity

QVQLVESGGGLVQAGGSLRLSCAASGFTIYWYTMVWYRQAPGKERELVAAISRRGGRTYYADSVKGRFTISRDNAKNTVYLQMNSLKPEDTAVYYCAADGTSPVDMNYWGQGTQVTVSS
polyreactivity (PSR sort gate): high polyreactivity

QVQLVESGGGLVQAGGSLRLSCAASGSTFWNAMGWYRPGPGKERELVAAIRLSGGSTYYADSVKGRFTISRDNAKNTVYLQMNSLKPEDTAVYYCNADVTFGYWEYDYWGQGTQVTVSS
polyreactivity (PSR sort gate): low polyreactivity

QVQRVESGGGLVQAGGSLRLSCAASGRTFRSYAMGWYRQAPGKERQFVAAISRSGASTRYADSVKGRFTISRDNAKNTVYFQMNSLKPEDTAVYYCAAVWPDVRGYDYWGQGTQVTVSS
polyreactivity (PSR sort gate): high polyreactivity

QVQLVESGGGLVQAGGSLRLSCAASGITFVHNVMGWYRQAPGKERELVAAINSGGRTYYADSVKGRFTISRDNAKNTVYLQMNSLKPEDTAVYYCAALGDKRGGGNYWGQGTQVTVSS
polyreactivity (PSR sort gate): high polyreactivity

QVQLVESGGGLVQAGGSLRLCCAASGIIFQRNDMGWYRQAPGKERELVANIRDGGITYADSVKGRFTISRDNAKNTVYLQMNSLKPEDTAVYYCARDDTSPGYGDQSSIAAYYYWGQGTQVTVSS
polyreactivity (PSR sort gate): low polyreactivity

QVQLVESGGGLVQAGGSLRLSCAASVSIFIANVMGWYRQAPGKERELVAAITRTSSTYYADSVKGRFTISRDNAKNTVYLQMNSLKPEDTAVYYCAKLYGVVGRWYRSSYGYWGQGTQVTVSS
polyreactivity (PSR sort gate): high polyreactivity

QVQLVESGGGLVQAGGSLRLSCAASGITFDHYAMGWYRQAPGKEREFVAAIDDIGGDTYYADSVKGRFTISRDNAKNTVYLQMNSLKPEDTAVYYCAADYGYYSRFYYWGQGTQVTVSS
polyreactivity (PSR sort gate): low polyreactivity

QDQLVESGGGLVQAGGSLRLSCADSGITFSVYAMGWYRQAPGKERELVAAISWNGGRTYYADSVKGRFTISRDNAKNTVYLQMNSLKPEDTAVYYCAAQPWIFSSRLVWTRGYGYWGQGTQVTVSS
polyreactivity (PSR sort gate): high polyreactivity

QVQLVESGGGLVQAGGSLRLSCAASGFTFRVNAMGWYRQAPGKERELVAAISSGGSTNYADSVKGRFTISRDNAKYTVYLQMNSLKPEDTAVYYCAKRFKYIYYWGQGTQVTVSS
polyreactivity (PSR sort gate): high polyreactivity

QVQLVESGGCLVQAGGSLRLICASSGFTFRAYAMGWYIKAPGKEREFVAAISRRGGSTSYADSVKGRFTISRDNAKNTVYLQMNSLKPEDTAVYYCAATYQILTTSAHDSWGQGTQVTVSS
polyreactivity (PSR sort gate): high polyreactivity

QVQLVESGVGLVQAGGSLRLSCAASGFIFGVTTMGWYRLAPGKERELVAAISTLASSTFDADSVKGRFTISRDNAKNTVYLQMNSLKPEDTAVYYCAVDLNWFFSFGLDYWGQGTQLTVSS
polyreactivity (PSR sort gate): low polyreactivity

QVQLVESGGGLVQAGGSLRLSCAASGLTFVDYAMGWYRQAPGKERELVAAISWSGGSTYYADSVKGRFTISRDIAKNTVYLQMNSLKPEDTAVYYCAAETQGWYPWGFYWGQCTQVTVSS
polyreactivity (PSR sort gate): low polyreactivity

QVQLVESGGGLDQAGGSLRLSCAASGFTSYKYSRGWYRQAPGKETELVAASTGSGSRTFYADSVKGRFTISRDNAKNSFYLLMNSLKPEDTADYYCAARRPLYPERDYWGHGTQVTVSS
polyreactivity (PSR sort gate): high polyreactivity

QVQLVESGGGLVQAGGSLRLSCAASGYTFGYNARGWYRQAPGKERELVANITWRGGSTNYADSVKGRFTISRDNAKNTVYLQMNSLKPEDTAVYYCAADRPWYYGRYYYWGQGTQVTVSS
polyreactivity (PSR sort gate): high polyreactivity

QVQLVESGGGLVQAGGSLRLSCAASGFTFSLYAMGWYRQAPGKERELVASISSRGGSTYYADSVKGRFTISRDNAKNTVYLQMNSLKPEDTAVYYCNAGSVTRAWWGYWPFNYWGQGTQVTVSS
polyreactivity (PSR sort gate): low polyreactivity

QVQLVESGGGLVQAGRSLRLSCAASGITFPVYPMGWYRQAPGKERELVATITSSGGRTYYADSVKGRFTISRDNAKNTVYLQMNSLKPEDSAVYYCAAANGKGQGGYDYWGHGTQVTVSS
polyreactivity (PSR sort gate): high polyreactivity

QVQLVESGGGLVQAGASLRLSCAASGRIYPVYTMGWYRQAPGKERELVAAITSSGGSTYYADSVKGSFTISRDNAKNTVYLQMNSLKPEDTAVYDCAKRAGWAYYYWGQGTQVTVSS
polyreactivity (PSR sort gate): high polyreactivity

QVQLVESGGGLVQAGGSLRLSCAASGFIFDYNAMGWYRQAPGKERELVAAIDITGGSTYYADSVKGRFTISRDNAKNTVYLQMNSLKPEDTAVYYCNRPYYIWVYSGYSGYDYWGQGTQVTVSS
polyreactivity (PSR sort gate): low polyreactivity

QVQLVESGGGLVQAGGSLPLSCAASGRIFYTYAMGWYRQAPGKERELVAAITYRGGSTYYADSVKGRFTISRDNAKNTVYLQMNILIPEDTAVYYCAARPGRGPDSRWRYKYDYWGQGTQVTVSS
polyreactivity (PSR sort gate): high polyreactivity

QVQLVESGGGLVQAGGSLRLSCAASGRTFGQNAMGWYRQAPGKERELVAAISWRGARTFYADSVKGRFTISRDNAKNTVYLQMNSLKPEDTAVYYCAARYSAYRRNVAYDYWGQGTQVTVSS
polyreactivity (PSR sort gate): high polyreactivity

QVQLVESGGGLVQAVGSLRLSCAASGLIFERYAMGSYIQAPGKEREFVAAISKRGGSTYYADSVKGRFTISRDNAKNTVYLQMNSLKPEDTAVYDCAVQPNYYGMGYCGQGTQVTVSS
polyreactivity (PSR sort gate): high polyreactivity

QVQLVESGGGLVQAGGSLRLSCAASGSIFVYYTMGWYRQAPGKESELVAAISISGTSTYYADSVKGRFTISRDNAKYTVYLQLNSLKPEDTAVYYCAADTFYGEDYWGQGTQVTVSS
polyreactivity (PSR sort gate): low polyreactivity

QVQLVESGGGLVQAGGSLRLSCAASGFTFSYYAMGWYRQAPGKERELVAGITTGGGTNYADSVKGRFTISRDNAKNTVYLQMNSLKPEDTAVFYCNADYWYKYDYWGQGTQVTVSS
polyreactivity (PSR sort gate): low polyreactivity

QVQHVESGGGLVQAGGSLRLSCAASGRTFFYNTMGWYRQAPGKERELVARITRGGSTYYADSVKGRFTISRDNAKNTVYLQMNSLKPEDTAVYYCAAGYWRGYLLYGFDYWGQGTQVTVSS
polyreactivity (PSR sort gate): high polyreactivity

QVQLVESGGGLDQAGGSLRLSCAASGSISQVYAMGWYRQATGKERELVAVINDADDTSYADSVKGRFTISRDNAKNTVYLQMNSLKPEDTAVYYCAAESSYFVALTQFYTVEFYYWGQGTQLTVSS
polyreactivity (PSR sort gate): low polyreactivity

QVQLVESGGGLVQAGGSLRLSCAASGSTFRRYAMGWNRKAPGKERELVAAISGRGGSTSYADSVTGRFTISRDNAKNTVFLQMNSLKPEETAVYYCAADDKYFYPGNGYWGQGTQVTVSS
polyreactivity (PSR sort gate): high polyreactivity

QVQLVESGGGLVQAGGSLRLSCAASGLTYSNAMGWYRQAPVKERELVAAISWRGGRTYYADSVKGRFTISRDNAKNTVYLQMNSLKPEDTAVYYCAKYAHGHKWYGYWGQGTQVTVSS
polyreactivity (PSR sort gate): low polyreactivity

QVQLVESGGGLVQAGGSLRLSCAASGSTFGRNALGWYRQAPGKERELVASISWGGGSTYYADSVKGRFTISRDNAKNTVYLQMNSLKPEDTAVYYSNARRFLWSQLSGSFSYDYWGQGTQVTVSS
polyreactivity (PSR sort gate): high polyreactivity

QVQLVESGGGLVQAGGSLRLICAASGITFGCNAMGWYRQAPGKEREFVAAITFSDGSTRYADSVKGRFTISRDNAKNTVYLQMNSLKPEDTAVYYCAADTWSDKYDYWGQGTQVTVSS
polyreactivity (PSR sort gate): low polyreactivity

QVQLVESGGGLVQAGGSLRLSCAASGRTFWFYTMGWYRQAPGKERELVADIRRSGGSTYYADSVKGRFTISRDNAKNTVYLQMNSLKPEDTAVYYCASDPRRLAAGYTRYVYWGQGTQVTVSS
polyreactivity (PSR sort gate): high polyreactivity

QVQLVESGGGLVQAGGSLRLSCAASGSTFVYNAMGGYSQAPGKERELGASISRGGGITYYADSVKGRFTISRDNAKNTVYLQMNSLKPEDTAVYYCAKTKGYRGHYYYWGQGTQVTVSS
polyreactivity (PSR sort gate): high polyreactivity

QVQLVESGGGLVQAGGSLRLSCAASGFIFPGYAMGWYRQAPGKERELVAAISVSGGSTFYADSVKGRFTISRDNAKYTVYLQMNSLKPEDTAVYYCNARGYTWSYPLGIRVRYDYWGQGTQVTVSS
polyreactivity (PSR sort gate): high polyreactivity

QVQLVESGGGLVQAGGSLRLSCAASGSTFVYAMAWSRQAPGKERELVAAIRLRSGSTYYADSVKGRFTISRDNAKNTVYLQMNSLKPEDTAVYYCAAAIQSSKVSVKFGYWGQGTQVTVSS
polyreactivity (PSR sort gate): high polyreactivity

QVQLVESGGGLVQAGGSLRLSCAASGSTFTTYGMGWYRQAPGKERELVAAISLSSGRTYYADSVKGRFTISRDNAKNTVYLQMNSLKPEDTAVYYCNKRSQKPSQYKPYGYWGQGTQVTVSS
polyreactivity (PSR sort gate): high polyreactivity

QVQLVESGGGLVQAGGSLRLSCAASGFTFYRYAMGWYRQAPGKERELVATISASGASTYYADSVKGRFSISRDNAKNNVYLQMNRLKPEDTAVYYCAVRYKSWYGFNYWGQGTQVTVSS
polyreactivity (PSR sort gate): high polyreactivity

QVQLVESGGGLVQAGGSLRLSCAASGSIFYYYAMGWYRQAPGKERELVAAISRSGGSTYYADSVKGRFTISRDNAKNTVYLQMNSLKPEDTAVYYCNVAYGLQPYDYWGQGTQVTVSS
polyreactivity (PSR sort gate): high polyreactivity

QVQLVESGGGLVQAGGSLRLSCAATGSTFHWYAMGWYRQAPGKATELVATITWSGGSTYYADSVKGRFTISRDNAKNTVYLQMNSLKPEDTAVYYCAAETYILLEYDYWGQGTQVTVSS
polyreactivity (PSR sort gate): high polyreactivity

QVQLVESGGGLVQAGGSLRLSCADSGPTIFYYAMGWYRTAPGKERELVAAIRRSGGRTRYADSVKGRFTISRDNAKNTVYLQMNSLKPEDTAVYYCAADDGTHRRGYDYWGQGTQVTVSS
polyreactivity (PSR sort gate): low polyreactivity

QVQLVESGGGLVQAGGSLRLSCAASGSIFSQYLMVWYRQAPGKERELVAAISWSGGHTYYADSVKGRFTISRDNAKNTVYLQMNSLKPEDTAVYYCATVPRKTPGNAELDYWGHGTQVTVSS
polyreactivity (PSR sort gate): high polyreactivity

QVQLVESGGGLVQAGGSLRLSCAASGRIFYRYAMGWYRPAPGKERELVAAIRYSGGRTYYADSVKGRFTISRDNAKNTVYLQMISLKPEDTAVYYCAADGQWYYAPFRGGDYENDYWGQGTQVTVSS
polyreactivity (PSR sort gate): low polyreactivity

QVQLVESGGGLVQAGGSLRLSCAASGRIFSGYAMGWYRQAPGKERELVAAITSRSGSTYYADSVKGRFTISRDNAKNTVYFQMNSLKPEDTAVYYCAAEYVRFYWYTSDYWGQGTQVTVSS
polyreactivity (PSR sort gate): low polyreactivity

QVQLVESGGGLVQAGGSLRLSCAASGSIFFSYAMGWYRQAPGKERELVAAITSSVDSTYYADSVKGRFTISRDNAKNTVYLQMNSLKPEDTAVYYCDARYRSGYYRYDYWGQGTQVTVSS
polyreactivity (PSR sort gate): low polyreactivity
